Test system: MS2 coat protein
Assay: apparent KD of MS2 coat protein; designed switch direction (-1 OFF switch, 1 ON switch): -1; higher = weaker reporter binding
Procedure, shortened: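 Three titration conditions were used: no input, 200 uM small-molecule ligand, and an oligonucleotide input. In each, SNAP-549-labelled MS2 coat protein was raised from 0.7 or 1.5 nM, doubling, to 3 µM over designed RNA switches transcribed on Illumina chips by stalled E. coli RNA polymerase. Curve fits of normalised cluster fluorescence gave values whose per-design median over clusters is the apparent KD.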

[1] = input ligand: microRNA oligo, concentration not stated
[2] = Eterna round: R95, input ligand: FMN 200 uM
[3] = Eterna round: R95, input ligand: microRNA oligo, concentration not stated
[4] = Eterna round: R95, input ligand: none

Row | Sequence | apparent KD of MS2 coat protein (input ligand: FMN 200 uM) [nM] | apparent KD of MS2 coat protein [1] [nM] | apparent KD of MS2 coat protein (input ligand: none) [nM] | apparent KD of MS2 coat protein [2] [nM] | apparent KD of MS2 coat protein [3] [nM] | apparent KD of MS2 coat protein [4] [nM]
1 | AGUAGUUGUUUCCGUUCUUACAUGAGGAUCACCCAUGUUUCUUGACGUGCACGCGAUGCUCGUCAGACUACCAGAUG [salish99_TOv1_r3_057] (Eterna round: R96, puzzle: Sensor v3, turn-off variant 1) | 60.5 | 37.4 | 57 |  |  | 
2 | AGUAGUUGUUUCCGUUCUUACAUGAGGAUCACCCAUGUUUCUUGACGUGCACGCGAUGCUCGUCAGACUACCAGAUG [salish99_TOv1_r3_057] (puzzle: Sensor v3, turn-off variant 1) |  |  |  | 57.6 | 87.8 | 81.7
3 | AGUAGUUGUUUCCGUUCUUACAUGAGGAUCACCCAUGUUUCUUGUCGUGCUCGCGUUGCUCGUCAGACUACCUGUUG [salish99_TOv1_r3_062] (puzzle: Sensor v3, turn-off variant 1) |  |  |  | 69.8 | 88.6 | 105
4 | AGUAUCUAUCAUGAGAGUGGUAGGUACAACAGGUGGGAAACAUGAGGAUCACCCAUGUCCUCAUUUGCUCGUCUUAU [Grok-var2-01] (puzzle: Sensor v3, turn-off variant 2) |  |  |  | 550 | 144 | 764
5 | AGUAUGCGUGUCAGGAUAUCAAUGGCUCUACCCAAUGAGAAGGGACAUGAGGAUCACCCAUGUAUGAGCCUAAA [Zatelaveus] (puzzle: Brourd's mod of Exclusion 4) |  |  |  | 15.9 | 14.1 | 14.5
6 | AGUCAGGCGGUAGGAUAUCCAUAUCGAGUGACCCUUUCAUAACAUGAGGAUCACCCAUGUCGGUGGGAGAAGGGCCGUACGGCA [Mat - Exclusion NG 2 - Mod of JL - D68] (Eterna round: R96, puzzle: Exclusion NG 2) | 116 | 52.3 | 89.3 |  |  | 
7 | AGUCAGGCGGUAGGAUAUCCAUAUCGAGUGACCCUUUCAUAACAUGAGGAUCACCCAUGUCGGUGGGAGAAGGGCCGUACGGCG [JL ViennaUCT Atra mod 4] (Eterna round: R96, puzzle: Exclusion NG 2) | 203 | 84.2 | 103 |  |  | 
8 | AGUCCUGGAGUUAGGAUAUGGCGUAUCGCUGCGCUUCAGAAGGGACUUGAGGAUCACCCAAGUAGCCGUGAGGG [salish99_bmod_ex4_r4_008] (Eterna round: R97, puzzle: Brourd's mod of Exclusion 4) | 81.7 |  | 82.4 |  |  | 
9 | AGUCGAAAGACAAAAACAGACAUGAGGAUCACCCAUGUAAAGGGUGAACAAGCCACCCGCUCGUCUUAAAAAAAAAA [Mat - Sensor v2 - JL mod - D25] (Eterna round: R96, puzzle: Sensor v2, turn-off variant) | 136 | 69.2 | 114 |  |  | 
10 | AGUCGGAAGACAAAAGGAAACAUGAGGAUCACCCAUGUAAAGGGUGAAAACAAGCCACCCGCUCGUCUUAAAGAAAA [Mat - Sensor v2- JL mod - D44] (Eterna round: R96, puzzle: Sensor v2, turn-off variant) | 40.7 | 144 | 46.1 |  |  | 
11 | AGUCGGCGAGGAUAUACAUGAGGAUCACCCAUGUGUGAUCCUAGACCUGUAGGUCCAUGUAGAAGGCGCUGACA [Exclusion 3 - Was a mod at one point] (puzzle: Exclusion 3) |  |  |  |  | 18.8 | 
12 | AGUCGGUCAGGAUAUGCAUACGUAGACAUGAGGAUCACCCAUGUGACGUGGGCCUGGUGUGUAGAAGGGACGAGCA [EX5 #82] (Eterna round: R97, puzzle: Exclusion 5) | 32.6 |  | 17.6 |  |  | 
13 | AGUCGUAAACAAGUUUCUGACAUGAGGAUCACCCAUGUGAGACUAAAAGUAUCAGAUUGCCUAAUAAGUAGCUCGUC [Eternabot (L2) Solution 29] (Eterna round: R97, puzzle: Sensor, turn-off variant 1) | 20.6 |  | 23.5 |  |  | 

From the supplement of paper PMC9170038
